For this experiment, the target named is recombinant PTB (Homo sapiens (Human), UniProt P26599). Put plainly: in vitro co-IP (anti-PTB) with western blot.
Chain of recombinant PTB (P26599 whole entry): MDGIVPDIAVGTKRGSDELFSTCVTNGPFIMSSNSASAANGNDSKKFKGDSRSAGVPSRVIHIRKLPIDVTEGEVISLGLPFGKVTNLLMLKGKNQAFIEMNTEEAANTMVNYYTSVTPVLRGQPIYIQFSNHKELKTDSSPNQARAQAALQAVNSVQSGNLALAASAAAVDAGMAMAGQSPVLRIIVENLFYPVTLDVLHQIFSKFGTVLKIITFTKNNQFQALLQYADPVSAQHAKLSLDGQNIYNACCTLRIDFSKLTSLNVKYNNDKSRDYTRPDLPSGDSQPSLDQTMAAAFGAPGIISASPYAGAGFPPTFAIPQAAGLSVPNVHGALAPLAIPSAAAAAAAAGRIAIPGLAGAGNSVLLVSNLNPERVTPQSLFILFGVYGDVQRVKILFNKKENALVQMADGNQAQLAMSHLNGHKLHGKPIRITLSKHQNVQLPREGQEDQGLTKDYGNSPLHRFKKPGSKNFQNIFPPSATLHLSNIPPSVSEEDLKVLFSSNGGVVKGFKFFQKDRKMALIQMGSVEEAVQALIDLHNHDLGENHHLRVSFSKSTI

B1: recombinant hnRNPA1 (protein)
chain: MSKSESPKEPEQLRKLFIGGLSFETTDESLRSHFEQWGTLTDCVVMRDPNTKRSRGFGFVTYATVEEVDAAMNARPHKVDGRVVEPKRAVSREDSQRPGAHLTVKKIFVGGIKEDTEEHHLRDYFEQYGKIEVIEIMTDRGSGKKRGFAFVTFDDHDSVDKIVIQKYHTVNGHNCEVRKALSKQEMASASSSQRGRSGSGNFGGGRGGGFGGNDNFGRGGNFSGRGGFGGSRGGGGYGGSGDGYNGFGNDGGYGGGGPGYSGGSRGYGSGGQGYGNQGSGYGGSGSYDSYNNGGGGGFGGGSGSNFGGGGSYNDFGNYNNQSSNFGPMKGGNFGGRSSGPYGGGGQYFAKPRNQGGYGGSSSSSSYGSGRRF
For B1, the binding result is given as “binds”.

These data come from PMC3857619 (2013).
